Experimental findings from doi:10.1101/2021.10.06.463398, “Disruption of nucleoid expanded conformation by toxic aberrant proteins synthesized in Escherichia coli” (bioRxiv, 2021) are described below.

The star is where a group is joined. FITC = O=C1OC2(c3ccc(O)cc3Oc3cc(O)ccc32)c2ccc(NC(=S)*)cc21

This test addresses T1, 6His-DnaK (E. coli molecular chaperone DnaK) (E. coli, UniProt P0A6Y8 1-638).
T1 construct: No tag removal is described; also called purified E. coli DnaK protein; source: E. coli, ASKA expression clone, purified (Ni-NTA agarose)
The test can be described thus: MST; 20 nM fluorescein-labelled peptide with varying concentrations of DnaK; MST buffer (50 mM Tris pH 7.4, 150 mM NaCl, 10 mM MgCl2, 0.05% Tween-20, 0.05% bovine serum albumin); 1 h at 20°C; Monolith NT.115. The conditions noted are these: both partners purified.

T1 sequence (P0A6Y8 whole entry): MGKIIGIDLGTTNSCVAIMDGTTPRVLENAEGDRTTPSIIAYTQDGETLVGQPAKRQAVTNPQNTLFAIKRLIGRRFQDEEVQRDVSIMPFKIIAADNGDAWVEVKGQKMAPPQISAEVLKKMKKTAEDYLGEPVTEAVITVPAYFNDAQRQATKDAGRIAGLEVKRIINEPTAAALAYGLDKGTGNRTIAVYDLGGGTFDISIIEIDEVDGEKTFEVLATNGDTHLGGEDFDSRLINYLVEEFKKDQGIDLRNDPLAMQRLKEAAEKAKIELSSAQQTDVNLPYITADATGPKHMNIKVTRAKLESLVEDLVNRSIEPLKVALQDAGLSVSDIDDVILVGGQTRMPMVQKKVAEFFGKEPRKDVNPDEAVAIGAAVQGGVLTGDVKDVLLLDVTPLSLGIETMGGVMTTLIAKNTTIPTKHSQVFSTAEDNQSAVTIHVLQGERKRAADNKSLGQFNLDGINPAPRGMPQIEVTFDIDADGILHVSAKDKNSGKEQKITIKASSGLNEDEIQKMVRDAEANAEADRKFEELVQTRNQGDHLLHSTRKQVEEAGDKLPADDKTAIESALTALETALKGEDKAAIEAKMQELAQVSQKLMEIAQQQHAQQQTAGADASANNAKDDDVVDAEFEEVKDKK

B1: NR peptide, FITC-TEKANRLLLTGKTEQ-NH2 (canonical DnaK peptide substrate NRLLLTG with flanking extensions) (peptide)
peptide: {FITC}-TEKANRLLLTGKTEQ-NH2
notes: N-terminal extension TEKA, canonical DnaK substrate heptapeptide NRLLLTG, C-terminal extension KTEQ; source: synthetic peptide (Peptide 2.0, Inc.)
For the molecule B1, the binding result was “binds”.

B2: KL peptide, FITC-TEKAKLVIKLLALGKTEQ-NH2 (KL decapeptide of ARF48 with flanking extensions) (peptide)
peptide: {FITC}-TEKAKLVIKLLALGKTEQ-NH2
notes: ARF48 is a 48-residue product of the +1 alternate reading frame of Arabidopsis thaliana cDNA At3G62370, not a natural protein), C-terminal extension KTEQ; The core decapeptide is not part of a natural protein: it is an alternate-reading-frame translation product; also called synthetic KL decapeptide; source: synthetic peptide (Peptide 2.0, Inc.)
Turning to B2, the binding result is given as “binds”.
